From patent US20160030544A1 (published 2016) come the findings set out here.

In this experiment the target is fHbp v2.22 WT. Put plainly: SPR.

B1: fH6-7 (other)
chain: TLKPCDYPDIKHGGLYHENMRRPYFPVAVGKYYSYYCDEHFETPSGSYWDHIHCTQDGWSPAVPCLRKCYFPYLENGYNQNYGRKFVQGKSIDVACHPGYALPKAQTTVTCMENGWSPTPRCI
By Kd is commonly meant the constant that tells how readily two partners part at equilibrium. A lower Kd goes with a tighter complex. For B1, the affinity, expressed as Kd, was 0.3 nM.
